Data from PMC10866937, “Aptamers targeting SARS-CoV-2 nucleocapsid protein exhibit potential anti pan-coronavirus activity”.
Like-named read-outs stand apart in the source and are kept apart here.

What was measured:
[1] = molecular target: HCoV-OC43 nucleocapsid protein (HCoV-OC43, UniProt P33469 1-448); assay: CE; Kd range for six aptamers 6.57-31.76 nM; details: protein: recombinant
[2] = molecular target: MERS-CoV nucleocapsid protein (MERS NP) (MERS-CoV, UniProt K9N4V7 1-411); details: protein: commercial
[3] = molecular target: SARS-CoV nucleocapsid protein (SARS NP) (SARS-CoV, UniProt P59595 1-422); details: protein: commercial
[4] = molecular target: SARS-CoV-2 nucleocapsid protein (NP) (SARS-CoV-2 (WT), UniProt P0DTC9 1-419); assay: CE; details: protein: commercial
[5] = label: 5'-FAM in CE (position not restated for aptamers)

Measured: binding result

GCAGGCAAGGCTCTACTGACCCGTTGCTTGATCGAC (ssDNA) [Seq-7]
binds: [1]; [5] | [2]; [5] | [3]; [5] | [4]; [5]

CACCTCTCACCCCACGGTTCTGGTCCTTCCCCGACG (ssDNA) [Seq-1280]
binds: [1]; label: FAM in CE | [2]; label: FAM in CE | [3]; label: FAM in CE | [4]; label: FAM in CE

ACTCCCACCTTTATTGAGGGCGGTGACGGGTTCCCTC (ssDNA) [Seq-59]
binds: [1]; label: FAM in CE | [2]; label: FAM in CE | [3]; label: FAM in CE | [4]; label: FAM in CE

AGGGGGGACACCTAGATTGTTGGCCGTGCGGATACG (ssDNA) [Seq-333]
binds: [1]; label: FAM in CE | [2]; label: FAM in CE | [3]; label: FAM in CE | [4]; label: FAM in CE

AGGGGGGACATCTGGAGTGTTGGCCGTGCGGATACG (ssDNA) [Seq-1022]
binds: [1]; label: FAM in CE | [2]; label: FAM in CE | [3]; label: FAM in CE | [4]; label: FAM in CE

TCCACGGTCGGTCCCCTTACCACTGGTCCCTTTGTC (ssDNA) [Seq-4650]
binds: [1]; label: FAM in CE | [2]; label: FAM in CE | [3]; label: FAM in CE | [4]; label: FAM in CE
